Measured values: publication PMC6555819, “Comprehensive study of nuclear receptor DNA binding provides a revised framework for understanding receptor specificity”
Changes are numbered by the printed parent chain.

B1: NRC3_wobSeed25_DR1_G24C_o1 (dsDNA)
DNA 1: GCCAAACTAGGTCAAAGGTCAAACTCGAGCCAACCAGCGATTGACAGCGTAGAATGAAGG
DNA 2: CCTTCATTCTACGCTGTCAATCGCTGGTTGGCTCGAGTTTGACCTTTGACCTAGTTTGGC
B2: NRC3_wobSeed38_DR1_G11T_o1 (dsDNA)
DNA 1: GCCCTGCTAGTTCAATGGTCAGCTAAAGCAGCTCGCGCGATTGACAGCGTAGAATGAAGG
DNA 2: CCTTCATTCTACGCTGTCAATCGCGCGAGCTGCTTTAGCTGACCATTGAACTAGCAGGGC
B3: NRC3_wobSeed44_DR1_A14T_o1 (dsDNA)
DNA 1: GCTGAATGAGGTTTAAGATCAGGGAACGTGGCGTCGGCGATTGACAGCGTAGAATGAAGG
DNA 2: CCTTCATTCTACGCTGTCAATCGCCGACGCCACGTTCCCTGATCTTAAACCTCATTCAGC
B4: NRC3_wobSeed64_DR2_A9C_o1 (dsDNA)
DNA 1: GCTAGCCTCGGTCATTGGGCCAGTATAGTACGCATCGCGATTGACAGCGTAGAATGAAGG
DNA 2: CCTTCATTCTACGCTGTCAATCGCGATGCGTACTATACTGGCCCAATGACCGAGGCTAGC
B5: NRC3_wobSeed101_DR4_A14T_o1 (dsDNA)
DNA 1: GCCCTTACGGGTCTCTCCAGGTTATAGCATCGGAGTGCGATTGACAGCGTAGAATGAAGG
DNA 2: CCTTCATTCTACGCTGTCAATCGCACTCCGATGCTATAACCTGGAGAGACCCGTAAGGGC
B6: NRC3_wobSeed38_DR1_A9C_o1 (dsDNA)
DNA 1: B2 DNA 1 with A9C, T11G
DNA 2: B2 DNA 2 with A50C, T52G
B7: NRC3_wobSeed134_DR5_A14G_o1 (dsDNA)
DNA 1: GCGCTGCTAGGTCGACTGATGGTCAGCTAAAGCTCGGCGATTGACAGCGTAGAATGAAGG
DNA 2: CCTTCATTCTACGCTGTCAATCGCCGAGCTTTAGCTGACCATCAGTCGACCTAGCAGCGC
B8: NRC3_wobSeed40_DR1_G10A_o1 (dsDNA)
DNA 1: GCTAGCCTAAGTCATGGGCCAGTATACCACGCGAACGCGATTGACAGCGTAGAATGAAGG
DNA 2: CCTTCATTCTACGCTGTCAATCGCGTTCGCGTGGTATACTGGCCCATGACTTAGGCTAGC
B9: NRC3_wobSeed90_DR3_C13A_o1 (dsDNA)
DNA 1: GCCATACAGGGTAAGCTAGGCCAGAGTAGGGACGGCGCGATTGACAGCGTAGAATGAAGG
DNA 2: CCTTCATTCTACGCTGTCAATCGCGCCGTCCCTACTCTGGCCTAGCTTACCCTGTATGGC
B10: NRC3_random_hg19_239_o1 (dsDNA)
DNA 1: GCATACATAAGGTGATTTGGCTACATGTATAGACAGGCGATTGACAGCGTAGAATGAAGG
DNA 2: CCTTCATTCTACGCTGTCAATCGCCTGTCTATACATGTAGCCAAATCACCTTATGTATGC
B11: NRC3_random_hg19_303_o1 (dsDNA)
DNA 1: GCAAGATCTCTACAATGAATTGTACCAATGCTCCAGGCGATTGACAGCGTAGAATGAAGG
DNA 2: CCTTCATTCTACGCTGTCAATCGCCTGGAGCATTGGTACAATTCATTGTAGAGATCTTGC
B12: NRC3_random_hg19_167_o1 (dsDNA)
DNA 1: GCTTTGAAGACACTGAAGGAGTGAGCCATTTGGATCGCGATTGACAGCGTAGAATGAAGG
DNA 2: CCTTCATTCTACGCTGTCAATCGCGATCCAAATGGCTCACTCCTTCAGTGTCTTCAAAGC
B13: NRC3_random_hg19_44_o1 (dsDNA)
DNA 1: GCATTTGAGATCTCAGTTTCTGCATACTGAATCACCGCGATTGACAGCGTAGAATGAAGG
DNA 2: CCTTCATTCTACGCTGTCAATCGCGGTGATTCAGTATGCAGAAACTGAGATCTCAAATGC
B14: NRC3_random_hg19_367_o1 (dsDNA)
DNA 1: GCATCTGTGTAACCAGCACCACAGTTAAGATACAGAGCGATTGACAGCGTAGAATGAAGG
DNA 2: CCTTCATTCTACGCTGTCAATCGCTCTGTATCTTAACTGTGGTGCTGGTTACACAGATGC
B15: NRC3_random_hg19_221_o1 (dsDNA)
DNA 1: GCCTTGAATCCAGGAGGCAGAGGCTGCAGTGAGCTGGCGATTGACAGCGTAGAATGAAGG
DNA 2: CCTTCATTCTACGCTGTCAATCGCCAGCTCACTGCAGCCTCTGCCTCCTGGATTCAAGGC
B16: NRC3_random_hg19_99_o1 (dsDNA)
DNA 1: GCTGTTCTTACTGAGGCGTTTGCTGCCTAGCTCCCTGCGATTGACAGCGTAGAATGAAGG
DNA 2: CCTTCATTCTACGCTGTCAATCGCAGGGAGCTAGGCAGCAAACGCCTCAGTAAGAACAGC
B17: NRC3_wobSeed121_DR5_A6C_o1 (dsDNA)
DNA 1: GCCAACCTAGGTCACCGGAAGGTCAAAGTCCGCATGGCGATTGACAGCGTAGAATGAAGG
DNA 2: CCTTCATTCTACGCTGTCAATCGCCATGCGGACTTTGACCTTCCGGTGACCTAGGTTGGC
B18: NRC3_random_hg19_172_o1 (dsDNA)
DNA 1: GCCAGTACTGTTGCTAGAACTACAACCTGTATGCTGGCGATTGACAGCGTAGAATGAAGG
DNA 2: CCTTCATTCTACGCTGTCAATCGCCAGCATACAGGTTGTAGTTCTAGCAACAGTACTGGC
B19: NRC3_random_hg19_200_o1 (dsDNA)
DNA 1: GCGCAGGAGAATCAGGCAGGGAGGTTGCAGTGAGCCGCGATTGACAGCGTAGAATGAAGG
DNA 2: CCTTCATTCTACGCTGTCAATCGCGGCTCACTGCAACCTCCCTGCCTGATTCTCCTGCGC
B20: NRC3_random_hg19_483_o1 (dsDNA)
DNA 1: GCGAATGGAATAGAGTGGAATGCAGTGGAATGGAAAGCGATTGACAGCGTAGAATGAAGG
DNA 2: CCTTCATTCTACGCTGTCAATCGCTTTCCATTCCACTGCATTCCACTCTATTCCATTCGC
B21: NRC3_random_hg19_326_o1 (dsDNA)
DNA 1: GCATCAGGTCTGCACCTGCAGATGGCGAGGGTTGGCGCGATTGACAGCGTAGAATGAAGG
DNA 2: CCTTCATTCTACGCTGTCAATCGCGCCAACCCTCGCCATCTGCAGGTGCAGACCTGATGC
B22: NRC3_random_hg19_188_o1 (dsDNA)
DNA 1: GCGCTAGGATTACAGGCACAAGCCACCGTGCCCAGCGCGATTGACAGCGTAGAATGAAGG
DNA 2: CCTTCATTCTACGCTGTCAATCGCGCTGGGCACGGTGGCTTGTGCCTGTAATCCTAGCGC
B23: NRC3_random_hg19_330_o1 (dsDNA)
DNA 1: GCAGACTTTGCATCCTGCTGAGAACTGCTCTGAGAGGCGATTGACAGCGTAGAATGAAGG
DNA 2: CCTTCATTCTACGCTGTCAATCGCCTCTCAGAGCAGTTCTCAGCAGGATGCAAAGTCTGC
B24: NRC3_random_hg19_473_o1 (dsDNA)
DNA 1: GCGCTACTCGGGAGGCTGAGGCAGGAGAATGGTGTGGCGATTGACAGCGTAGAATGAAGG
DNA 2: CCTTCATTCTACGCTGTCAATCGCCACACCATTCTCCTGCCTCAGCCTCCCGAGTAGCGC
B25: NRC3_wobSeed49_DR2_G25C_o1 (dsDNA)
DNA 1: GCCAAACTAGGTCAAGAGGTCAAACTCCGCTTCCCGGCGATTGACAGCGTAGAATGAAGG
DNA 2: CCTTCATTCTACGCTGTCAATCGCCGGGAAGCGGAGTTTGACCTCTTGACCTAGTTTGGC
B26: NRC3_wobSeed133_DR5_A8G_o1 (dsDNA)
DNA 1: GCCGTCCGAGGTCAATGCTAGGTCAGTGAAAGCATTGCGATTGACAGCGTAGAATGAAGG
DNA 2: CCTTCATTCTACGCTGTCAATCGCAATGCTTTCACTGACCTAGCATTGACCTCGGACGGC
B27: NRC3_wobSeed134_DR5_T20A_o1 (dsDNA)
DNA 1: B7 DNA 1 with G14A, T20A
DNA 2: B7 DNA 2 with A41T, C47T
B28: NRC3_wobSeed138_DR5_G15A_o1 (dsDNA)
DNA 1: GCGATACAGGGTCAACTAGAGGCCAGAGTATGGAAAGCGATTGACAGCGTAGAATGAAGG
DNA 2: CCTTCATTCTACGCTGTCAATCGCTTTCCATACTCTGGCCTCTAGTTGACCCTGTATCGC
B29: NRC3_wobSeed136_DR5_C23G_o1 (dsDNA)
DNA 1: GCTAGCCTAGGTCATTCAGGGGGCAGTATAGAAAGCGCGATTGACAGCGTAGAATGAAGG
DNA 2: CCTTCATTCTACGCTGTCAATCGCGCTTTCTATACTGCCCCCTGAATGACCTAGGCTAGC
B30: NRC3_wobSeed138_DR5_C23G_o1 (dsDNA)
DNA 1: B28 DNA 1 with A15G, C23G
DNA 2: B28 DNA 2 with G38C, T46C
B31: NRC3_wobSeed125_DR5_T24C_o1 (dsDNA)
DNA 1: GCCCTTACGGGTCACTGACAGGTCATAGCATTTGGAGCGATTGACAGCGTAGAATGAAGG
DNA 2: CCTTCATTCTACGCTGTCAATCGCTCCAAATGCTATGACCTGTCAGTGACCCGTAAGGGC
B32: NRC3_wobSeed134_DR5_T20G_o1 (dsDNA)
DNA 1: B7 DNA 1 with G14A, T20G
DNA 2: B7 DNA 2 with A41C, C47T

Assays:
[1] = molecular target: RARg:RXRa (Homo sapiens, UniProt P13631;P19793 full;full); test: no ligand; PBM; 270 nM : 90 nM RXRa; PBS pH 7.4, 2% milk, 0.02% Triton X-100, 1 mM DTT, BSA, 0.4 mg/ml salmon testes DNA; details: tags: His kept;His cleaved; copies: 1;1; label: surface-attached array probe
RARg:RXRa, sequence (P13631 whole entry, chain 1 of 2): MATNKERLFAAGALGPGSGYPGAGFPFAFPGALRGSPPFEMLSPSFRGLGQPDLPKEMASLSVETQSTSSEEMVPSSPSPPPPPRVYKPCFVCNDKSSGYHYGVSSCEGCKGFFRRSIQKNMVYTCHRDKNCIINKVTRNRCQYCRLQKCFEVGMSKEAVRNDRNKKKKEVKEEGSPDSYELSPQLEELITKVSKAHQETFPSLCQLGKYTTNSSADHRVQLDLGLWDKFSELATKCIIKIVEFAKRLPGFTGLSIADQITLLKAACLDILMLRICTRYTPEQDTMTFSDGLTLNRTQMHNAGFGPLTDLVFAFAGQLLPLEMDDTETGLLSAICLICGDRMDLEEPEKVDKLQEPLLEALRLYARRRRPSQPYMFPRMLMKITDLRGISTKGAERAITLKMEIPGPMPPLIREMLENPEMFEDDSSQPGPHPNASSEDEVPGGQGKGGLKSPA
RARg:RXRa, sequence (P19793 whole entry, chain 2 of 2): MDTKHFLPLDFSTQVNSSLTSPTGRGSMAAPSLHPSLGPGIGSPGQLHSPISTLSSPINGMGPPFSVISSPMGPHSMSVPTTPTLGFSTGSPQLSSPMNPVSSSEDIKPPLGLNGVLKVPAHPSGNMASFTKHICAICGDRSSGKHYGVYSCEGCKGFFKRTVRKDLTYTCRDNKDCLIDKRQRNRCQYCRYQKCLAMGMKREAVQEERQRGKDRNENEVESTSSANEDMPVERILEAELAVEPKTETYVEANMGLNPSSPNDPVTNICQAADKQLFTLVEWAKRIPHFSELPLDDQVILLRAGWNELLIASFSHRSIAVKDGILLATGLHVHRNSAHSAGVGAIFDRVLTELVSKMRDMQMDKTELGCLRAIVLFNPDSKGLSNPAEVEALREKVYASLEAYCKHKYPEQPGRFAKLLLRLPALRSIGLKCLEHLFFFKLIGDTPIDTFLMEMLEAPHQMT
Method in brief: (§1)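 Binding z-scores were set against random background probes. The data came from custom Agilent 4×180K protein-binding microarrays carrying double-stranded probes with 34-nt variable regions, incubated 1 h with ligand-free nuclear receptor dimers. Partner-specific antibodies detected binding, and scanned fluorescence was regression-normalized.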

[2] = molecular target: PPARa:RXRa (Homo sapiens, UniProt Q07869;P19793 full;full); test: as above; details: tags: GST kept;His cleaved; copies: 1;1; label: surface-attached array probe
PPARa:RXRa, sequence (Q07869 whole entry, chain 1 of 2): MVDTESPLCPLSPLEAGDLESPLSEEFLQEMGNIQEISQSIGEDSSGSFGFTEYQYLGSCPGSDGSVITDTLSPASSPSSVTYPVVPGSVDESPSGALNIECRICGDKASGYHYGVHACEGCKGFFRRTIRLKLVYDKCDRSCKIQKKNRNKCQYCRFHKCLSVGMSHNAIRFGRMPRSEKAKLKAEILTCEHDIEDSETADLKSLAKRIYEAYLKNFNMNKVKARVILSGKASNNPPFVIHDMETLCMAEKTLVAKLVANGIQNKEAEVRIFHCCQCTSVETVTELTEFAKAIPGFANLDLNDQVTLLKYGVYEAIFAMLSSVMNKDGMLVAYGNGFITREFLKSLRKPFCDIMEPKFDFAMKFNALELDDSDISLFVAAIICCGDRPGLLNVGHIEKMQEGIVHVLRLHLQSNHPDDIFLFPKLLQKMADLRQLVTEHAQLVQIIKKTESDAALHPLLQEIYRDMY
PPARa:RXRa, sequence (P19793 whole entry, chain 2 of 2): as the sequence (P19793 whole entry, chain 2 of 2) above
Method in brief: as §1

Binder	binding signal [1]	binding signal [2]
B1	9.32 PBM z-score against 500 random probes	–
B2	–	0.22 PBM z-score against 500 random probes
B3	–	0.18 PBM z-score against 500 random probes
B4	–	0.15 PBM z-score against 500 random probes
B5	–	0.07 PBM z-score against 500 random probes
B6	–	0.02 PBM z-score against 500 random probes
B7	–	0.01 PBM z-score against 500 random probes
B8	–	-0.06 PBM z-score against 500 random probes
B9	–	-0.35 PBM z-score against 500 random probes
B10	–	0.32 PBM z-score against 500 random probes
B11	–	-0.05 PBM z-score against 500 random probes
B12	–	-0.13 PBM z-score against 500 random probes
B13	–	-0.2 PBM z-score against 500 random probes
B14	–	-0.28 PBM z-score against 500 random probes
B15	–	-0.29 PBM z-score against 500 random probes
B16	–	-0.37 PBM z-score against 500 random probes

Binder	binding signal [1]	binding signal [2]
B17	8.94 PBM z-score against 500 random probes	–
B18	–	-0.42 PBM z-score against 500 random probes
B19	–	-0.47 PBM z-score against 500 random probes
B20	–	-0.61 PBM z-score against 500 random probes
B21	–	-0.67 PBM z-score against 500 random probes
B22	–	-0.72 PBM z-score against 500 random probes
B23	–	-1.18 PBM z-score against 500 random probes
B24	–	-1.24 PBM z-score against 500 random probes
B25	8.44 PBM z-score against 500 random probes	–
B26	8.1 PBM z-score against 500 random probes	–
B27	7.99 PBM z-score against 500 random probes	–
B28	7.73 PBM z-score against 500 random probes	–
B29	7.73 PBM z-score against 500 random probes	–
B30	7.69 PBM z-score against 500 random probes	–
B31	7.68 PBM z-score against 500 random probes	–
B32	7.66 PBM z-score against 500 random probes	–
